Assays:
[1] = biological target: syt2_rat Syt2 (UniProt P29101)
[2] = biological target: syt2_rat Syt2 (UniProt P29101); remark: listed apart in the source

syt2_rat Syt2, sequence (P29101 whole entry): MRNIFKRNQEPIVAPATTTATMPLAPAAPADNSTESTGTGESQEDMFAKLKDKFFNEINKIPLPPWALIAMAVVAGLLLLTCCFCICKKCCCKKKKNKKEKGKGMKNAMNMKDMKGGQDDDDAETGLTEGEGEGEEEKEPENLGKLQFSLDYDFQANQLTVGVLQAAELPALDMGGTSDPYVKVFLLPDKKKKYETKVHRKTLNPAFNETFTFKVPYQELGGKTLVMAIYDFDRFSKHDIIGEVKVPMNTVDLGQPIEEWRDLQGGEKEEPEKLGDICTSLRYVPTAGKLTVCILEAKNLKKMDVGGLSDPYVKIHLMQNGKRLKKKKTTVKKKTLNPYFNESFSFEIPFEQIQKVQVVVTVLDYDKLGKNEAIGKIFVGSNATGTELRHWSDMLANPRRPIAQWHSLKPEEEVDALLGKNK

| effect of a mutation on the interaction [1] | effect of a mutation on the interaction [2] | Substance |
| --- | --- | --- |
| decreasing interaction |  | Serine/threonine-protein kinase WNK1 (Rattus norvegicus (Rat)), Q9JIH7 V318D |
|  | decreasing interaction | Serine/threonine-protein kinase WNK1 (Rattus norvegicus (Rat)), Q9JIH7 V318E |

From IntAct's records for PubMed 15350218
